In publication PMC12748981:

Molecular target: GST-NUPR1 (UniProt O60356)
Assay: SPR
Conditions: VHH

UniProt O60356, sequence (O60356 whole entry): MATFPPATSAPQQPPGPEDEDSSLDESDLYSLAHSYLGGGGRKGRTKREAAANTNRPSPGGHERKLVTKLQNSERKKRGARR

sdAb#07.81-3xFlag-cOdc1-Tat-6xHis (from UniProt P00860)
Kd: 307 nM
